Legend:
[1] = molecular target: T1, CD8 on human T cells (PBMC) (human, UniProt P01732 22-235); experiment: flow cytometry, binding to human CD5+/CD4- cells (bear CD8 and CD3) (MFI)
T1 construct: whole, on cells; The CD8+ (CD5+ CD4-) cells also carry CD3; also called CD5+ CD4- gated PBMC; CD8+ T cells

[2] = molecular target: T2, B7-H3 on A498 and JIMT-1 target cells (UniProt Q5ZPR3 29-534, limits assumed); experiment: cell-based or functional assay
T2 sequence (looked up): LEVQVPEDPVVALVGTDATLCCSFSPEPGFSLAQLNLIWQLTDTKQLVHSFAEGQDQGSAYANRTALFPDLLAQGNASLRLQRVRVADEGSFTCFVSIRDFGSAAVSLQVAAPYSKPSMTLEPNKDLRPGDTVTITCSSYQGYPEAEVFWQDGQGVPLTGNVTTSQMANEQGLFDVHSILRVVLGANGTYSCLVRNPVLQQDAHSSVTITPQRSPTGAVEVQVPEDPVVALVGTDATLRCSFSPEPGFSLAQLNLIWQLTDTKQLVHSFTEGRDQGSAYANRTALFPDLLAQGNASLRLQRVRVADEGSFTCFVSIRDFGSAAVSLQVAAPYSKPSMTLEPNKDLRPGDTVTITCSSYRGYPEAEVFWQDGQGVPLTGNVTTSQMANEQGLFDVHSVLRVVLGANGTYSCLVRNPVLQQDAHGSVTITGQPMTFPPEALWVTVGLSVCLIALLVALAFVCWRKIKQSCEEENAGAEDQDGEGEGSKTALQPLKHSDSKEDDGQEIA

[3] = molecular target: T1, CD8 on human T cells (PBMC); experiment: flow cytometry on human PBMC, CD5+/CD4- gated cells (bear CD8 and CD3), detection PE anti-human Fc (MFI)
Protocol: 50 μL (4×10⁶ cells/mL) of well-mixed cells in FACS buffer containing 0.01% sodium azide were then added into corresponding wells and mixed thoroughly using a pipette. The plate was incubated in the dark for about 45 minutes at 2-8° C. At the end of the incubation, the cells were washed twice by adding 300 μL of FACS buffer to each well, centrifuging the plate at 1,200 rpm for 5 minutes, and discarding the supernatant. The cell pellets were re-suspended in 100 μL mixture of PE-conjugated goat anti-Human Fcγ 1:500 diluted, CD5-APC and CD4-PerCP5.5 in FACS buffer containing 0.01% sodium azide, and incubated in the dark for about 45 minutes at 2-8° C. At the end of the incubation, the cells were washed, re-suspended with FACS buffer, and analyzed with a BD Caliber flow cytometer. Cells were gated to CD5⁺ CD4⁺ (FIG. 9A) or CD5⁺ CD4⁻ (FIG. 9B).

[4] = molecular target: T3, 5T4 on JIMT-1 target cells (UniProt Q13641 32-420, limits assumed); experiment: cell-based or functional assay
T3 sequence (looked up): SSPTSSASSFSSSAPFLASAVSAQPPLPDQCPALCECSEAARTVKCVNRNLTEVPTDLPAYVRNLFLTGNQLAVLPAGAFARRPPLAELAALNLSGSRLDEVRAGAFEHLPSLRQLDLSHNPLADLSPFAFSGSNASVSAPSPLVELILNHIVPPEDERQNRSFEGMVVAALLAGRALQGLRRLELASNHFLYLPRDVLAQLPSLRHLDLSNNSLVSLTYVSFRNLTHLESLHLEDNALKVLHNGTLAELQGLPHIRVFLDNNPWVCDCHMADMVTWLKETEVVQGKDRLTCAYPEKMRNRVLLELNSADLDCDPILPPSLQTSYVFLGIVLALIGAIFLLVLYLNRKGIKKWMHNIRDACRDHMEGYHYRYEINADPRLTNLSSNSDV

[5] = molecular target: T1, CD8 on human T cells (PBMC); experiment: flow cytometry on human PBMC gated CD5+/CD4- (cells carry CD8 and CD3), detection with anti-human Fc-PE

T1 sequence (P01732 22-235): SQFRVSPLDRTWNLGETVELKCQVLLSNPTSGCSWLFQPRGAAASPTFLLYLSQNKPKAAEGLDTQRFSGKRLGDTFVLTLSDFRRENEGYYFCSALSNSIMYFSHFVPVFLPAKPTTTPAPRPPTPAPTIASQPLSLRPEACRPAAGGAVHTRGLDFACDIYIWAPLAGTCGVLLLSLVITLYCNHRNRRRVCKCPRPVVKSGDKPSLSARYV

B1: CD3 mAb 2/CD8 mAb 1/B7-H3 mAb 1 Tri-Specific Binding Molecule (other)
chain 1: DVQINQSPSFLAASPGETITINCRTSRSISQYLAWYQEKPGKTNKLLIYSGSTLQSGIPSRFSGSGSGTDFTLTISGLEPEDFAMYYCQQHNENPLTFGAGTKLELRGGGSGGGGEVQLVESGGGLVQPGGSLRLSCAASGFTFSTYAMNWVRQAPGKGLEWVGRIRSKYNNYATYYADSVKGRFTISRDDSKNSLYLQMNSLKTEDTAVYYCVRHGNFGNSYVSWFAYWGQGTLVTVSSGGCGGGEVAALEKEVAALEKEVAALEKEVAALEKGGGDKTHTCPPCPAPEAAGGPSVFLFPPKPKDTLMISRTPEVTCVVVDVSHEDPEVKFNWYVDGVEVHNAKTKPREEQYNSTYRVVSVLTVLHQDWLNGKEYKCKVSNKALPAPIEKTISKAKGQPREPQVYTLPPSREEMTKNQVSLWCLVKGFYPSDIAVEWESNGQPENNYKTTPPVLDSDGSFFLYSKLTVDKSRWQQGNVFSCSVMHEALHNHYTQKSLSLSPGK
chain 2: QAVVTQEPSLTVSPGGTVTLTCRSSTGAVTTSNYANWVQQKPGQAPRGLIGGTNKRAPWTPARFSGSLLGGKAALTITGAQAEDEADYYCALWYSNLWVFGGGTKLTVLGGGGSGGGGEVQLQQSGAELVKPGASVKLSCTASGFNIKDTYIHFVRQRPEQGLEWIGRIDPANDNTLYASKFQGKATITADTSSNTAYMHLCSLTSGDTAVYYCGRGYGYYVFDHWGQGTTLTVSSGGCGGGKVAALKEKVAALKEKVAALKEKVAALKE
heavy: QVQLVQSGAEVKKPGASVKVSCKASGYTFTSYWMQWVRQAPGQGLEWMGTIYPGDGDTRYTQKFKGRVTITADKSTSTAYMELSSLRSEDTAVYYCARRGIPRLWYFDVWGQGTTVTVSSASTKGPSVFPLAPSSKSTSGGTAALGCLVKDYFPEPVTVSWNSGALTSGVHTFPAVLQSSGLYSLSSVVTVPSSSLGTQTYICNVNHKPSNTKVDKRVEPKSCDKTHTCPPCPAPEAAGGPSVFLFPPKPKDTLMISRTPEVTCVVVDVSHEDPEVKFNWYVDGVEVHNAKTKPREEQYNSTYRVVSVLTVLHQDWLNGKEYKCKVSNKALPAPIEKTISKAKGQPREPQVYTLPPSREEMTKNQVSLSCAVKGFYPSDIAVEWESNGQPENNYKTTPPVLDSDGSFFLVSKLTVDKSRWQQGNVFSCSVMHEALHNRYTQKSLSLSPGK
light: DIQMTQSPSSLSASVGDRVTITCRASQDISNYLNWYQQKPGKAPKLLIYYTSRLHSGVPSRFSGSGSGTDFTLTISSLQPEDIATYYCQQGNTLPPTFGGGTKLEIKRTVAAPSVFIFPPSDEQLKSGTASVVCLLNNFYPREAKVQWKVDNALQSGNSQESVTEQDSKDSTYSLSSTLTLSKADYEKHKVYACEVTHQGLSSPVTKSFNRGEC
notes: Site A CD3, Site B CD8, Site C B7-H3
EC50 (read off the curve) [1]: ~2 nM | EC50 (nM) of killing, CD4+ effector cells, JIMT1-luc target cells, E:T 5:1 [2]: 0.105 nM | EC50 (nM) of killing, CD8+ effector cells, JIMT1-luc target cells, E:T 5:1 [2]: 0.0053 nM | EC50 (nM) of killing, PanT effector cells, JIMT1-luc target cells, E:T 5:1 [2]: 0.0113 nM

B2: B7-H3 mAb 1/CD3 mAb 2/CD8 mAb 2 Tri-Specific Binding Molecule (other)
chain 1: DIQMTQSPSSLSASVGDRVTITCRASQDISNYLNWYQQKPGKAPKLLIYYTSRLHSGVPSRFSGSGSGTDFTLTISSLQPEDIATYYCQQGNTLPPTFGGGTKLEIKGGGSGGGGEVQLVESGGGLVQPGGSLRLSCAASGFTFSTYAMNWVRQAPGKGLEWVGRIRSKYNNYATYYADSVKDRFTISRDDSKNSLYLQMNSLKTEDTAVYYCVRHGNFGNSYVSWFAYWGQGTLVTVSSGGCGGGEVAALEKEVAALEKEVAALEKEVAALEKGGGDKTHTCPPCPAPEAAGGPSVFLFPPKPKDTLMISRTPEVTCVVVDVSHEDPEVKFNWYVDGVEVHNAKTKPREEQYNSTYRVVSVLTVLHQDWLNGKEYKCKVSNKALPAPIEKTISKAKGQPREPQVYTLPPSREEMTKNQVSLWCLVKGFYPSDIAVEWESNGQPENNYKTTPPVLDSDGSFFLYSKLTVDKSRWQQGNVFSCSVMHEALHNHYTQKSLSLSPGK
chain 2: QAVVTQEPSLTVSPGGTVTLTCRSSTGAVTTSNYANWVQQKPGQAPRGLIGGTNKRAPWTPARFSGSLLGGKAALTITGAQAEDEADYYCALWYSNLWVFGGGTKLTVLGGGGSGGGGQVQLVQSGAEVKKPGASVKVSCKASGYTFTSYWMQWVRQAPGQGLEWMGTIYPGDGDTRYTQKFKGRVTITADKSTSTAYMELSSLRSEDTAVYYCARRGIPRLWYFDVWGQGTTVTVSSGGCGGGKVAALKEKVAALKEKVAALKEKVAALKE
heavy: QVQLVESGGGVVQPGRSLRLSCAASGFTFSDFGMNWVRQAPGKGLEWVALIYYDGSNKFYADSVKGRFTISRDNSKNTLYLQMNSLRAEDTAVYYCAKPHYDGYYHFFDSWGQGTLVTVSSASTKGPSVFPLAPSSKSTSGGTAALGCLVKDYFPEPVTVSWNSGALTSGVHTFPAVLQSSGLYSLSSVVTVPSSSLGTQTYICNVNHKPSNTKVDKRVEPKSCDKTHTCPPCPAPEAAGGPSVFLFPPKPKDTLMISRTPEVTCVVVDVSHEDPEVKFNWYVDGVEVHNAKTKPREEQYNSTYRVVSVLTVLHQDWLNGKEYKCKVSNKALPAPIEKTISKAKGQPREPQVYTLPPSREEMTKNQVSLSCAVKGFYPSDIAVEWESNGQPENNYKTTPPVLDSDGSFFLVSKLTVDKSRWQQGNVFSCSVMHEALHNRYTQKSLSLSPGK
light: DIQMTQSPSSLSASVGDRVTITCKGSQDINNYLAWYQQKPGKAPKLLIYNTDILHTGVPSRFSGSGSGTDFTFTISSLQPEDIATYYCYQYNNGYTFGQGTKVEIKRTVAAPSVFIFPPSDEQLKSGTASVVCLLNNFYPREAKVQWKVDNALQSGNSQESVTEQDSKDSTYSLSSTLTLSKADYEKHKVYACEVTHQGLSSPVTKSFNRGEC
notes: Site A B7-H3, Site B CD3, Site C CD8 (TRX2)
EC50 (read off the curve) [3]: ~1 nM | EC50 (nM) of killing, CD4+ effector cells, JIMT1-luc target cells, E:T 5:1 [2]: 0.314 nM | EC50 (nM) of killing, CD8+ effector cells, JIMT1-luc target cells, E:T 5:1 [2]: 0.0051 nM | EC50 (nM) of killing, PanT effector cells, JIMT1-luc target cells, E:T 5:1 [2]: 0.0058 nM

B3: 5T4 mAb 1/CD3 mAb 2 Fast/CD8 mAb 1 Tri-Specific Binding Molecule (other)
chain 1: DIQMTQSPSSLSASVGDRVTITCRASQGISNYLAWFQQKPGKAPKSLIYRANRLQSGVPSRFSGSGSGTDFTLTISSLQPEDVATYYCLQYDDFPWTFGQGTKLEIKGGGSGGGGEVQLVESGGGLVQPGGSLRLSCAASGFTFSTYAMNWVRQAPGKGLEWVGRIRSKYNNYATYYADSVKGRFTISRDDSKNSLYLQMNSLKTEDTAVYYCVRHKNFGNSYVTWFAYWGQGTLVTVSSASTKGEVAACEKEVAALEKEVAALEKEVAALEKGGGDKTHTCPPCPAPEAAGGPSVFLFPPKPKDTLMISRTPEVTCVVVDVSHEDPEVKFNWYVDGVEVHNAKTKPREEQYNSTYRVVSVLTVLHQDWLNGKEYKCKVSNKALPAPIEKTISKAKGQPREPQVYTLPPSREEMTKNQVSLWCLVKGFYPSDIAVEWESNGQPENNYKTTPPVLDSDGSFFLYSKLTVDKSRWQQGNVFSCSVMHEALHNHYTQKSLSLSPGK
chain 2: QAVVTQEPSLTVSPGGTVTLTCRSSTGAVTTSNYANWVQQKPGQAPRGLIGGTNKRAPWTPARFSGSLLGGKAALTITGAQAEDEADYYCALWYSNLWVFGGGTKLTVLGGGGSGGGGQVQLVQSGAEVKKPGASVKVSCKASGYTFTSFWMHWVRQAPGQGLEWMGRIDPNRGGTEYNEKAKSRVTMTADKSTSTAYMELSSLRSEDTAVYYCAGGNPYYPMDYWGQGTTVTVSSASTKGKVAACKEKVAALKEKVAALKEKVAALKE
heavy: EVQLQQSGAELVKPGASVKLSCTASGFNIKDTYIHFVRQRPEQGLEWIGRIDPANDNTLYASKFQGKATITADTSSNTAYMHLCSLTSGDTAVYYCGRGYGYYVFDHWGQGTTLTVSSASTKGPSVFPLAPSSKSTSGGTAALGCLVKDYFPEPVTVSWNSGALTSGVHTFPAVLQSSGLYSLSSVVTVPSSSLGTQTYICNVNHKPSNTKVDKRVEPKSCDKTHTCPPCPAPEAAGGPSVFLFPPKPKDTLMISRTPEVTCVVVDVSHEDPEVKFNWYVDGVEVHNAKTKPREEQYNSTYRVVSVLTVLHQDWLNGKEYKCKVSNKALPAPIEKTISKAKGQPREPQVYTLPPSREEMTKNQVSLSCAVKGFYPSDIAVEWESNGQPENNYKTTPPVLDSDGSFFLVSKLTVDKSRWQQGNVFSCSVMHEALHNRYTQKSLSLSPGK
light: DVQINQSPSFLAASPGETITINCRTSRSISQYLAWYQEKPGKTNKLLIYSGSTLQSGIPSRFSGSGSGTDFTLTISGLEPEDFAMYYCQQHNENPLTFGAGTKLELRRTVAAPSVFIFPPSDEQLKSGTASVVCLLNNFYPREAKVQWKVDNALQSGNSQESVTEQDSKDSTYSLSSTLTLSKADYEKHKVYACEVTHQGLSSPVTKSFNRGEC
EC50 (nM) of killing, CD4+ effector cells, JIMT1-luc target cells, E:T 5:1 [4]: 0.16 nM | EC50 (nM) of killing, CD8+ effector cells, JIMT1-luc target cells, E:T 5:1 [4]: 0.0021 nM | EC50 (nM) of killing, PanT effector cells, JIMT1-luc target cells, E:T 5:1 [4]: 0.0028 nM | EC50 (read off the curve) [5]: ~0.5 nM

Source: patent publication US20200207850A1 (MacroGenics, published 2020)
